B1: Gas6 full-length proteins: Gas6 full-length proteins used as comparator (protein, UniProt Q14393 1-678, looked up)
chain: MAPSLSPGPAALRRAPQLLLLLLAAECALAALLPAREATQFLRPRQRRAFQVFEEAKQGHLERECVEELCSREEAREVFENDPETDYFYPRYLDCINKYGSPYTKNSGFATCVQNLPDQCTPNPCDRKGTQACQDLMGNFFCLCKAGWGGRLCDKDVNECSQENGGCLQICHNKPGSFHCSCHSGFELSSDGRTCQDIDECADSEACGEARCKNLPGSYSCLCDEGFAYSSQEKACRDVDECLQGRCEQVCVNSPGSYTCHCDGRGGLKLSQDMDTCEDILPCVPFSVAKSVKSLYLGRMFSGTPVIRLRFKRLQPTRLVAEFDFRTFDPEGILLFAGGHQDSTWIVLALRAGRLELQLRYNGVGRVTSSGPVINHGMWQTISVEELARNLVIKVNRDAVMKIAVAGDLFQPERGLYHLNLTVGGIPFHEKDLVQPINPRLDGCMRSWNWLNGEDTTIQETVKVNTRMQCFSVTERGSFYPGSGFAFYSLDYMRTPLDVGTESTWEVEVVAHIRPAADTGVLFALWAPDLRAVPLSVALVDYHSTKKLKKQLVVLAVEHTALALMEIKVCDGQEHVVTVSLRDGEATLEVDGTRGQSEVSAAQLQERLAVLERHLRSPVLTFAGGLPDVPVTSAPVTAFYRGCMTLEVNRRLLDLDEAAYKHSDITAHSCPPVEPAAA
modifications: full-length
notes: Gas6 full-length proteins used as comparator
B2: Gas6-LamininG active peptide: sequence of EGF-LamininG functional domain of Gas6 protein, amino acid sequence SEQ ID NO.1 (protein)
chain: DQCTPNPCDRKGTQACQDLMGNFFCLCKAGWGGRLCDKDVNECSQENGGCLQICHNKPGSFHCSCHSGFELSSDGRTCQDIDECADSEACGEARCKNLPGSYSCLCDEGFAYSSQEKACRDVDECLQGRCEQVCVNSPGSYTCHCDGRGGLKLSQDMDTCEDILPCVPFSVAKSVKSLYLGRMFSGTPVIRLRFKRLQPTRLVAEFDFRTFDPEGILLFAGGHQDSTWIVLALRAGRLELQLRYNGVGRVTSSGPVINHGMWQTISVEELARNLVIKVNRDAVMKIAVAGDLFQPERGLYHLNLTVGGIPFHEKDLVQPINPRLDGCMRSWNWLNGEDTTIQETVKVNTRMQCFSVTERGSFYPGSGFAFYSLDYMRTPLDVGTESTWEVEVVAHIRPAADTGVLFALWAPDLRAVPLSVALVDYHSTKKLKKQLVVLAVEHTALALMEIKVCDGQEHVVTVSLRDGEATLEVDGTRGQSEVSAAQLQERLAVLERHLRSPVLTFAGGLPDVPVTSAPVTAFYRGCMTLEVNRRLLDLDEAAYKHSDITAHSCPPVEPAAA
modifications: the amino acid sequence of the active peptide

Experiments:
[1] = tested on: AKT phosphorylation level downstream of MerTK; test: AKT phosphorylation level in RPE cells cultivated in vitro (Western blotting, pAKT/GAPDH); format: cell-based; conditions: 200 ng/ml and 800 ng/ml, 30 minutes, vs blank control
Method: Segmented cloning was conducted according to the functional domain of Gas6 protein, wherein the sequence of EGF-LamininG functional domain is the primary active peptide sequence (G3, named as Gas6-LamininG active peptide).

RPE cells = test: Model of in vitro RPE phagocytosis (disc membrane uptake, laser confocal); format: cell-based; conditions: after 3 h of RPE phagocytosis, p<0.05 between groups

| Molecule | Akt phosphorylation level (relative gray value of pAKT/GAPDH) [1] | contents of disc membranes taken up (RPE phagocytosis capacity) (RPE cells) |
| --- | --- | --- |
| B1 | significantly upregulating Akt phosphorylation levels | – |
| B2 | significantly upregulating Akt phosphorylation levels | an effect of enhancing the phagocytic functions of retinal pigment epithelium |

— patent US20200390853A1, “ACTIVE PEPTIDE FOR ENHANCING THE PHAGOCYTIC FUNCTIONS OF RETINAL PIGMENT EPITHELIUM AND A USE THEREOF” (Beijing Tongren Hospital, Capital Medical University, priority 2019, published 2020)
